According to the supplement of paper PMC9170038:

Tested on: MS2 coat protein
Assay: apparent KD of MS2 coat protein; designed switch direction (-1 OFF switch, 1 ON switch): 1; higher = weaker reporter binding
Procedure, shortened: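 Designed RNA switches with common flanks were transcribed on Illumina chips by stalled E. coli RNA polymerase and titrated with SNAP-549-labelled MS2 coat protein, from 0.7 or 1.5 nM doubling to 3 µM, in Tris-HCl pH 7.5 buffer with KCl, MgCl2, BSA, DTT, tRNA and Tween-20. Steps lasted 0.8–1.5 h (lowest) to 10–20 min (highest). Titrations ran without input, with 200 uM small-molecule ligand, or with an oligonucleotide input. Normalised cluster fluorescence was curve-fitted, and apparent KD is the per-design median over clusters.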

[1] = input ligand: microRNA oligo, concentration not stated
[2] = Eterna round: R95, input ligand: FMN 200 uM
[3] = Eterna round: R95, input ligand: microRNA oligo, concentration not stated
[4] = Eterna round: R95, input ligand: none

| Sequence | apparent KD of MS2 coat protein (input ligand: FMN 200 uM) [nM] | apparent KD of MS2 coat protein [1] [nM] | apparent KD of MS2 coat protein (input ligand: none) [nM] | apparent KD of MS2 coat protein [2] [nM] | apparent KD of MS2 coat protein [3] [nM] | apparent KD of MS2 coat protein [4] [nM] |
| --- | --- | --- | --- | --- | --- | --- |
| AUUGCUGUCACAGGAUAUCAUGCGGAAAUCGCGUGAGAAGGGUGGACUCUGUCAUUCACGGAGGACAUGAGGAUCACCCAUGUC [SS NG10LRO18] (Eterna round: R96, puzzle: Same State NG 1) | 508 | 29 | 62.4 |  |  |  |
| GAAAAGGCAACGCAGGAUAUGAAAGGUGAAACAUGAGGAUCACCCAUGUGCUACCUUCCGAUAAAUCAGAAGGGCGACGCCUAAA [Usbemaus] (puzzle: Same State 2) |  |  |  | 9.33 | 8.96 | 11.1 |
| CUAACAACAGGUUGCAGUGCUCGUCUCUAACAUGAGGAUCACCCAUGUAAUAGCCCGGUGGAAGCGCUCGGGUCACC [Tearor] (puzzle: Sensor for hsa-mir-208a) |  |  |  | 28.3 | 34.5 | 30.9 |
| GUGGUCAGACAUGAGGAUCACCCAUGUGGAAUAAAUAACGGACAGGAUAUAAAAUAUAGGAUAUAUUAGAAGGGUUGAUUGGUG (Eterna round: R96, puzzle: Same State NG 3) | 43.7 | 38.1 | 68.4 |  |  |  |
| GGUAAGAAUUAAGGAUAUUGAAUACAUAUGUUUAACAUGAGGAUCACCCAUGUGGGUUGCGGUGUCGAGAAGGUAAAUUAAUAG [Mat - same State NG 2 - JL mod - D100] (Eterna round: R96, puzzle: Same State NG 2) | 262 | 166 | 305 |  |  |  |
| AUAUAUAUAAGGAAGGAUAUCUUAGAAAAAACAUGAGGAUCACCCAUGUAAAUAAAGAAUAAAUGGGAGAAGGUCCAUAUAUAUA [77%, More Tesla, 10] (Eterna round: R96, puzzle: Same State 2) |  | 22 |  |  |  |  |
| UGUUGUAUUACAGGAUAUCUAUUAGUAUUAUUUAGAGAAGGGUAUUCACAUGAGGAUCACCCAUGUAUAUACGAGGAAGUUGUG [JMF's solution 89] (Eterna round: R96, puzzle: Same State NG 1) |  | 34.8 |  |  |  |  |
| GACAAUCUAUCUGAGGAUAUCAUGAAUAAAACAUGAGGAUCACCCAUGUGCAGGAGAACUGCAAAUGAGAAGGCAGAUAGAUUGG [Mat - Same State 2 - Mod - D10] (puzzle: Same State 2) |  |  |  | 10 | 37.2 | 26.9 |
| GAGGGCGAAAGCAACAUGAGGAUCACCCAUGUUGUCGGAGGGCAGGAUAUCCGGCGAAAGCAGAAGGAGAAGGGUCGAAAAGAA [AK SSNG3-V2-39] (Eterna round: R96, puzzle: Same State NG 3) | 15.5 | 13.1 | 21.4 |  |  |  |
| GACAAUCUAUCUGAGGAUAUCAUGAAUAAAACAUGAGGAUCACCCAUGUGCAGGAUAACUGCAAAUGAGAAGGCAGAUAGAUUGU [Mat - Same State 2 - Mod - D7] (puzzle: Same State 2) |  |  |  | 12.3 | 24 | 27.7 |
| CUCCGGAAGCGAGGAUAUGCAGAGGAUCACCCUGCAGAAGGCGCCCUUGCGAGGAUAUGCAGAGGAUCACCCUGCAGAAGGCGC [pwkr ssNG DX.30] (Eterna round: R96, puzzle: Same State NG 1) | 16.2 | 15.4 | 28 |  |  |  |
| GCUCGACGUAUGGCCUACAUGAGGAUCACCCAUGUGACUGGGCAGGAUAUCUAAAUGCAGAAUGUAGAGAAGGGCCCGUCGAGC [SameState NG3 #49] (Eterna round: R96, puzzle: Same State NG 3) | 163 | 99.6 | 188 |  |  |  |
| GGUCCAGCCUGAGCUGGACAAAAGCAUGUACAUGAGGAUCACCCAUGUCAUGUACAAGCUUUUUGCUCGUCAUAAAU [Mat - hsa-mir-208a - 96] (puzzle: Sensor for hsa-mir-208a) |  |  |  | 702 | 13.1 | 668 |
| CAGCACUAUCGAGAGGAUAUGCGGUGAUGGACAUGAGGAUCACCCAUGUUAGCGAUGGCAUCACGGCAGAAGGCUCUGCUGCUGC [Soteed Omei mod 38] (puzzle: Same State 2) |  |  |  |  | 13.2 |  |
| GAGUGGAGGAGAGGAUAUACAAUGAUAAUCACAGUAGAAGGUUCUAACAUGAGGAUCACCCAUGUAGGACUAUACCUGAGAGAA [Parity 48 - Jieux - Same State NG 1] (Eterna round: R96, puzzle: Same State NG 1) | 12.7 | 9.96 | 16 |  |  |  |
| UUGGUGUAGAUACAGGAUAUGUUGCUUGUUACAUGAGGAUCACCCAUGUAUCUAUGAGAUUAAAUGCAGAAGGGUGCACAUCACU [salish99_ss2_r3_091] (puzzle: Same State 2) |  |  |  | 52.9 | 124 | 169 |
